Experimental data taken from IntAct's records for PubMed 21577200.

Target: spop_human SPOP (UniProt O43791)
Sequence (O43791 whole entry): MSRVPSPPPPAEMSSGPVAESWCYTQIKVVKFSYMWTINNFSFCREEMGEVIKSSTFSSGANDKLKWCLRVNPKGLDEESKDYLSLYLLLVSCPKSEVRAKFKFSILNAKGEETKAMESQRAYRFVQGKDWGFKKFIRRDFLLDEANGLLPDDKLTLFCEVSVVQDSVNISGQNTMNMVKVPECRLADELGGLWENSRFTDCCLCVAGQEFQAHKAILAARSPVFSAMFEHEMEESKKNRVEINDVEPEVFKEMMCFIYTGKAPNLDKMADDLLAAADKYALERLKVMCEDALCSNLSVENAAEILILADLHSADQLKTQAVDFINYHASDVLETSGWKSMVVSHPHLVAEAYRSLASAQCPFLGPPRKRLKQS

Substance	effect of a mutation on the interaction
Nuclear receptor coactivator 3 (Homo sapiens), Q9Y6Q9 S101A;S102A	disrupting interaction
Nuclear receptor coactivator 3 (Homo sapiens), Q9Y6Q9 S102A	disrupting interaction
